According to US20080242590A1, “New Method 706” (ASTRAZENECA AB, priority 2007, published 2008):

Assays:
soluble Aβ42 = experiment: Soluble Aβ42 in plasma after acute i.v. treatment (Example 23); assay type: in vivo, APPSWE-transgenic mice
Description: The objective with this study was to evaluate the time and dose-response effect of Fc-Nep in plasma of female APPSWE-tg mice after acute intraveneous treatment. The specific purpose is to find an effect on plasma Aβ40 and Aβ42. The γ-secretase inhibitor M-550426 is included as a reference compound.
25-31 weeks old female APPSWE-transgenic mice (10 mice/group) received vehicle or the Fc-Nep at 1 or 5 mg/kg as a single intravenous injections. As a reference compound, 300 μmol/kg of the γ-secretase inhibitor M-550426 was used and these animals was treated in 3 hours (4 mice). […] Blood was sampled from vehicle- and compound-treated animals at 1.5 and 3 hours after dose. Blood was withdrawn from anaesthetized mice by heart puncture into pre-chilled microtainer tubes containing EDTA. Blood samples were immediately put on ice prior to centrifugation. Plasma was prepared by centrifugation for 10 minutes at approximately 3000×g at +4° C. within 20 minutes from sampling. After blood sampling, mice were terminated. Aβ40 and Aβ42 levels in plasma were analyzed by commercial ELISA kit obtained from Biosource and Innogenetics, respectively.

amyloid β 1-40 peptide = experiment: Degradation of amyloid β 1-40 peptide by Fc-Neprilysin and Neprilysin in buffer; assay type: biochemical; conditions: 2.4 μg/ml, Aβ 1-40 300 nM, 2.5 hours at 37° C., buffer
Description: The assay is measuring the remaining amyloid β 1-40 peptide (Bachem) concentration following its incubation in the presence of Neprilysin (R&D Systems) or Fc-Neprilysin with or without Neprilysin inhibitor. 100 μl of reaction mixture containing amyloid β 1-40 peptide (final concentrations, 300, 30 or 3 nM) and/or Neprilysin (2.4 μg/ml), and/or Fc-Neprilysin construct (2.4 μg/ml), and/or Phosphoramidone (10 μM) was incubated in a round bottom 96-well polypropylene plate at 37° C. for 2.5 hours. Following incubation, 10 μl of reaction mixture was transferred into Thermo-Fast© 96-well PCR plate (Abgene, UK) containing 10 μl of Standard Diluent (Gyros AB). Amyloid β 1-40 concentration was determined using Gyrolab Workstation LIF system. Biotinylated anti-amyloid β antibodies (6E10; final concentration 50 μg/ml; Signet) were used as capturing antibodies and polyclonal anti-human amyloid β antibodies (44-348; Biosource) labeled with Alexa Fluor 647 dye (Molecular probes) were used as detection antibodies. Amyloid β 1-40 peptide concentration measurement performed according to the manufacturers protocol using Gyrolab Bioaffy™ Software Package Version 1.8 (Gyros AB). Amyloid β 1-40 peptide degradation by Neprilysin was calculated as a percentage of Amyloid β 1-40 peptide left after incubation in the presence of Neprilysin compared to the amyloid β 1-40 peptide concentration in the absence of Neprilysin.

[1] = Plasma exposure (Example 25); assay type: in vivo, C57BL/6 mice; conditions: for Mean plasma exposure: 5 mg/kg i.v.
Description: (§1) 20-21 weeks old female C57BL/6 mice (8 mice/group) received vehicle or hFc-Nep at 5 mg/kg as a single intravenous injection and Aβ40 was analysed at different time points after injection (between 1.5-168 hours, i.e., up to 1 week). The γ-secretase inhibitor M-550426 was given per orally and the animals were treated for 3 hours. A blank group was also included in the study. […] Blood collection, plasma processing and measurement of mouse Aβ40 levels in plasma were basically as described in Example 27.

[2] = Observations of animal health (Example 25); assay type: in vivo, C57BL/6 mice; conditions: 5 mg/kg single i.v., up to 168 hours
Description: as §1

mouse Aβ40 = experiment: Mouse Aβ40 in plasma, time and dose response 1.5 and 3 hours (Example 24); assay type: in vivo, C57BL/6 mice
Description: The objective with this study was to evaluate the time and dose-response effect of hFc-Nep in plasma of female C57BL/6 mice after an acute treatment. The specific purpose is to find an effect on plasma Aβ40 and to correlate effect to exposure level of hFc-Nep in plasma. The γ-secretase inhibitor M-550426 is included as a positive control.
13 weeks old female C57BL/6 mice (10 mice/group) received vehicle or hFc-Nep at 1 or 5 mg/kg as a single intravenous injection. M-550426 was administrated per orally at 300 μmol/kg 3 hours before termination. A blank group was also included in the study.
Blood was sampled from vehicle- and compound-treated animals at 1.5 and 3 hours after dose. Blood was withdrawn from anaesthetized mice by heart puncture into pre-chilled microtainer tubes containing EDTA. Blood samples were immediately put on ice prior to centrifugation. Plasma was prepared by centrifugation for 10 minutes at approximately 3000×g at +4° C. within 20 minutes from sampling. After blood sampling, mice were terminated. […] Mouse Aβ40 levels in plasma were analysed by commercial ELISA kit obtained from Biosource. The concentrations of Fc-Nep in plasma and in the formulations were assayed according to the procedures described in Example 27.

[3] = Pharmacokinetics of Fc-Nep and commercial neprilysin, single i.v. dose (Example 20); assay type: in vivo; conditions: mice, single i.v. dose 1 alternatively 5 mg/kg
Description: The Fc-Nep fusion protein was developed to improve the pharmacokinetic entities of neprilysin with the specific aims to reduce clearance and improve half-life. To test this we have administrated a single i.v. dose of either 1 mg/kg commercial neprilysin or 1 alternatively 5 mg/kg in-house produced Fc-Nep to mice. At set times after dosing blood samples were drawn from the tail vein or by heart puncture at termination. Upon sampling into tubes containing EDTA the aliquots were put on ice. Plasma was prepared by centrifugation within 15 minutes of sampling (typically 1500 g at 4° C. for 10 min) and immediately frozen. Plasma concentrations of Fc-Nep and neprilysin were determined via immunoassays using either anti-Nep for commercial neprilysin or anti-human IgG for Fc-Nep as capture antibodies while both substances were detected via an anti-Nep antibody. Pharmacokinetic parameters are calculated using a software package (WinNonlin, Pharsight Corporation, USA) and in this example experiment the calculated half-life had increased from about 5 minutes for Nep to about 20 hours for Fc-Nep.

Aβ40 = experiment: Plasma Aβ40 time-response after single i.v. dose (Example 25); assay type: in vivo, C57BL/6 mice; conditions: 5 mg/kg single i.v., all time points (1.5, 6, 12, 24, 36, 72 and 168 hours)
Description: The objective of this study was to evaluate the time-response relationship of the hFc-Nep in plasma of female C57BL/6 mice after a single dose. The specific purpose is to find how long the reducing effect of hFc-Nep stays in the plasma, and to correlate the effect to the level of exposure of test compound in plasma. The γ-secretase inhibitor M-550426 is included as a positive compound.
as §1

B1: Fc-Neprilysin: extracellular domain of human Neprilysin fused to the human IgG2 Fc domain (including hinge), Fc at N-terminus; SEQ ID NO 11 (protein)
chain: ERKCCVECPPCPAPPVAGPSVFLFPPKPKDTLMISRTPEVTCVVVDVSHEDPEVQFNWYVDGVEVHNAKTKPREEQFNSTFRVVSVLTVVHQDWLNGKEYKCKVSNKGLPAPIEKTISKTKGQPREPQVYTLPPSREEMTKNQVSLTCLVKGFYPSDIAVEWESNGQPENNYKTTPPMLDSDGSFFLYSKLTVDKSRWQQGNVFSCSVMHEALHNHYTQKSLSLSPGKYDDGICKSSDCIKSAARLIQNMDATTEPCTDFFKYACGGWLKRNVIPETSSRYGNFDILRDELEVVLKDVLQEPKTEDIVAVQKAKALYRSCINESAIDSRGGEPLLKLLPDIYGWPVATENWEQKYGASWTAEKAIAQLNSKYGKKVLINLFVGTDDKNSVNHVIHIDQPRLGLPSRDYYECTGIYKEACTAYVDFMISVARLIRQEERLPIDENQLALEMNKVMELEKEIANATAKPEDRNDPMLLYNKMTLAQIQNNFSLEINGKPFSWLNFTNEIMSTVNISITNEEDVVVYAPEYLTKLKPILTKYSARDLQNLMSWRFIMDLVSSLSRTYKESRNAFRKALYGTTSETATWRRCANYVNGNMENAVGRLYVEAAFAGESKHVVEDLIAQIREVFIQTLDDLTWMDAETKKRAEEKALAIKERIGYPDDIVSNDNKLNNEYLELNYKEDEYFENIIQNLKFSQSKQLKKLREKVDKDEWISGAAVVNAFYSSGRNQIVFPAGILQPPFFSAQQSNSLNYGGIGMVIGHEITHGFDDNGRNFNKDGDLVDWWTQQSASNFKEQSQCMVYQYGNFSWDLAGGQHLNGINTLGENIADNGGLGQAYRAYQNYIKKNGEEKLLPGLDLNHKQLFFLNFAQVWCGTYRPEYAVNSIKTDVHSPGNFRIIGTLQNSAEFSEAFHCRKNSYMNPEKKCRVW
- Change in plasma Aβ42 (soluble Aβ42; 1 mg/kg i.v., 1.5 hours): No significant change
- Reduction of Aβ42 in plasma compared to vehicle (soluble Aβ42; 5 mg/kg i.v., 1.5 hours, P<0.05): approximately 20%
- Change in plasma Aβ42 (soluble Aβ42; any of the doses (1 and 5 mg/kg), 3 hours): No significant changes
- Amyloid β 1-40 peptide degraded (amyloid β 1-40 peptide; batch 1): 50%
- Amyloid β 1-40 peptide degraded (amyloid β 1-40 peptide; batch 2): 42%
- Mean plasma exposure ([1]; 1 week (168 hours)): 38 µg/mL
- Mean plasma exposure ([1]; 1.5 hours): 87 µg/mL
- half-life in mice ([1]; 5 mg/kg single i.v.): considerably long
- Observations of the animal health [2]: no overt adverse effects
- Reduction of mouse Aβ40 in plasma compared to vehicle (mouse Aβ40; 1 mg/kg i.v., 1.5 hours, p=0.1638): 17%
- Reduction of mouse Aβ40 in plasma compared to vehicle (mouse Aβ40; 1 mg/kg i.v., 3 hours, p<0.005): 36%
- Reduction of mouse Aβ40 in plasma compared to vehicle (mouse Aβ40; 5 mg/kg i.v., 1.5 hours, p<0.0001): 76%
- Reduction of mouse Aβ40 in plasma compared to vehicle (mouse Aβ40; 5 mg/kg i.v., 3 hours, p<0.0001): 72%
- calculated half-life [3]: about 20 hours
- Aβ40 reduction in plasma compared to vehicle (Aβ40): 67-80%
